Assay results reported in publication PMC9064290.

Target: α1-specific anti-SynGAP antibody (06–800)
Test: western blot of cell lysates, band intensity quantified
Settings: H293T cells transfected with wild-type or PBM EGFP-SynGAPα1; probed with Pan-SynGAP (D20C7) and α1-specific antibody; n = 4; parent: est. 1.0; read off a plot

EGFP-SynGAPα1 T/I; V/E (C-terminal PDZ-binding motif QTRV changed to QIRE)
ratio to parent: 0.45
